According to patent US20230240966:

T1: Suc-AAPV-pNA
T1 chain: AAPV

T2: Suc-AAPA-pNA
T2 chain: AAPA

T3: Suc-AAPL-pNA
T3 chain: AAPL

T4: Suc-AAPI-pNA
T4 chain: AAPI

T5: Suc-AAPF-pNA
T5 chain: AAPF

T6: Suc-AAPK-pNA
T6 chain: AAPK

T7: Suc-AAPD-pNA
T7 chain: AAPD

T8: Suc-AAPE-pNA
T8 chain: AAPE

T9: Suc-AAPR-pNA
T9 chain: AAPR

T10: Suc-AAPM-pNA
T10 chain: AAPM

B1: Glutamyl endopeptidase blaSE from Bacillus licheniformis (protein)
chain: SVIGSDDRTRVTNTTAYPYRAIVHISSSIGSCTGWMIGPKTVATAGHCIYDTSSGSFAGTATVSPGRNGTSYPYGSVKSTRYFIPSGWRSGNTNYDYGAIELSEPIGNTVGYFGYSYTTSSLVGTTVTISGYPGDKTAGTQWQHSGPIAISETYKLQYAMDTYGGQSGSPVFEQSSSRTNCSGPCSLAVHTNGVYGGSSYNRGTRITKEVFDNLTNWKNSAQ
B2: Subtilisin Carlsberg from Bacillus licheniformis (protein)
chain: AQTVPYGIPLIKADKVQAQGFKGANVKVAVLDTGIQASHPDLNVVGGASFVAGEAYNTDGNGHGTHVAGTVAALDNTTGVLGVAPSVSLYAVKVLNSSGSGSYSGIVSGIEWATTNGMDVINMSLGGASGSTAMKQAVDNAYARGVVVVAAAGNSGSSGNTNTIGYPAKYDSVIAVGAVDSNSNRASFSSVGAELEVMAPGAGVYSTYPTNTYATLNGTSMASPHVAGAAALILSKHPNLSASQVRNRLSSTATYLGSSFYYGKGLINVEAAAQ
B3: Lysyl endopeptidase from Achromobacter lyticus (protein)
chain: GVSGSCNIDVVCPEGDGRRDIIRAVGAYSKSGTLACTGSLVNNTANDRKMYFLTAHHCGMGTASTAASIVVYWNYQNSTCRAPNTPASGANGDGSMSQTQSGSTVKATYATSDFTLLELNNAANPAFNLFWAGWDRRDQNYPGAIAIHHPNVAEKRISNSTSPTSFVAWGGGAGTTHLNVQWQPSGGVTEPGSSGSPIYSPEKRVLGQLHGGPSSCSATGTNRSDQYGRVFTSWTGGGAAASRLSDWLDPASTGAQFIDGLDSGGGTP
B4: Thermostable alkaline protease BH0855 from Bacillus halodurans (protein)
chain: QTVPWGISFINTQQAHNRGIFGNGARVAVLDTGIASHPDLRIAGGASFISSEPSYHDNNGHGTHVAGTIAALNNSIGVLGVAPSADLYAVKVLDRNGSGSLASVAQGIEWAINNNMHIINMSLGSTSGSSTLELAVNRANNAGILLVGAAGNTGRQGVNYPARYSGVMAVAAVDQNGQRASFSTYGPEIEISAPGVNVNSTYTGNRYVSLSGTSMATPHVAGVAALVKSRYPSYTNNQIRQRINQTATYLGSPSLYGNGLVHAGRATQ
B5: Subtilisin 309 variant from Bacillus clausii (protein)
chain: AQSVPWGIERVQAPAAHNRGLTGSGVKVAVLDTGISTHPDLRIRGGASFVPGEPSTQDGNGHGTHVAGTIAALDNSIGVLGVAPSEALYAVKVLGASGSGSVSSIAQGLEWAGNNGMHVANLSLGSPSPSATLEQAVNSATSRGVLVVAASGNSGAGSISYPARYANAMAVGATDQNNNRASFSQYGAGLDIVAPGVNILSTWPGSTYASLNGTSMATPHVAGAAALVKQKNPSWSNVQIRNHLKNTATSLGDTWEYGSGLVNAEAATR
B6: Serine protease from Nocardiopsis sp NRRL 18262 (protein)
chain: ADIIGGLAYTMGGRCSVGFAATNAAGQPGFVTAGHCGRVGTQVTIGNGRGVFEQSVFPGNDAAFVRGTSNFTLTNLVSRYNTGGYATVAGHNQAPIGSSVCRSGSTTGWHCGTIQARGQSVSYPEGTVTNMTRTTVCAEPGDSGGSYISGTQAQGVTSGGSGNCRTGGTTFYQEVTPMVNSWGVRLRT
B7: Glutamyl endopeptidase II sprE from Streptomyces griseus (protein)
chain: VLGGGAIYGGGSRCSAAFNVTKGGARYFVTAGHCTNISANWSASSGGSVVGVREGTSFPTNDYGIVRYTDGSSPAGTVDLYNGSTQDISSAANAVVGQAIKKSGSTTKVTSGTVTAVNVTVNYGDGPVYNMVRTTACSAGGDSGGAHFAGSVALGIHSGSSGCSGTAGSAIHQPVTEALSAYGVTVY
B8: Serine protease bppB from Bacillus pumilus JA16 (protein)
chain: VVIGDDGRTKVTNTRVAPYNSIAYITFGGSSCTGTLIAPNKILTNGHCVYNTATRSYSAKGSVYPGMNDSTAVNGSANMTEFYVPSGYINTGASQYDFAVIKTDTNIGNTVGYRSIRQVTNLTGTTIKISGYPGDKMRSTGKVSQWEMSGPVTREDTNLAYYTIDTFSGNSGSAMLDQNQQIVGVHNAGYSNGTINGGPKATAAFVEFINYAKAQ
B9: Trypsin from Fusarium oxysporum (protein)
chain: IVGGTSASAGDFPFIVSISRNGGPWCGGSLLNANTVLTAAHCVSGYAQSGFQIRAGSLSRTSGGITSSLSSVRVHPSYSGNNNDLAILKLSTSIPSGGNIGYARLAASGSDPVAGSSATVAGWGATSEGGSSTPVNLLKVTVPIVSRATCRAQYGTSAITNQMFCAGVSSGGKDSCQGDSGGPIVDSSNTLIGAVSWGNGCARPNYSGVYASVGALRSFIDTYA

Target: T1, Suc-AAPV-pNA
Settings: scale: relative to the substrate with the highest activity

Protein	relative activity (initial increase in OD405)
B1	0.0001
B2	0.0007
B3	0.0007
B4	0.0008
B5	0.0001
B6	0.0121
B7	0
B8	0
B9	0

Target: T2, Suc-AAPA-pNA
Settings: scale: relative to the substrate with the highest activity

Protein	relative activity (initial increase in OD405)
B1	0.0001
B2	0.0222
B3	0.0005
B4	0.088
B5	0.0566
B6	0.0001
B7	0
B8	0
B9	0

target: type II (60-70 kDa) keratins of the ORS; settings: not given

Protein	hydrolysis of ORS tissue protein, SDS-PAGE with Coomassie Blue
B1	5 ppm HZ-2 fully degraded type I and type II during the experiment

Target: T3, Suc-AAPL-pNA
Settings: scale: relative to the substrate with the highest activity

Protein	relative activity (initial increase in OD405)
B1	0.0027
B2	0.807
B3	0.0019
B4	1
B5	0.17
B6	0.185
B7	0
B8	0.0005
B9	0

Target: T4, Suc-AAPI-pNA
Settings: scale: relative to the substrate with the highest activity

Protein	relative activity (initial increase in OD405)
B1	0
B2	0.0005
B3	0.0017
B4	0.0005
B5	0.0003
B6	0.0004
B7	0
B8	0
B9	0

Target: T5, Suc-AAPF-pNA
Settings: scale: relative to the substrate with the highest activity

Protein	relative activity (initial increase in OD405)
B1	0.0032
B2	1
B3	0.0041
B4	0.59
B5	1
B6	1
B7	0
B8	0
B9	0.0001

Target: T6, Suc-AAPK-pNA
Settings: scale: relative to the substrate with the highest activity

Protein	relative activity (initial increase in OD405)
B1	0.0001
B2	0.0155
B3	1
B4	0.0038
B5	0.0011
B6	0.0778
B7	0
B8	0.0003
B9	0.84

Target: T7, Suc-AAPD-pNA
Settings: scale: relative to the substrate with the highest activity

Protein	relative activity (initial increase in OD405)
B1	0.002
B2	0.0008
B3	0.0006
B4	0.0053
B5	0.0001
B6	0.0028
B7	0.158
B8	0.0043
B9	0

Target: T8, Suc-AAPE-pNA
Settings: not given

Protein	Glutamyl endopeptidase ratio (GR)
B1	309
B2	0.003
B3	< 0.001
B4	0.008
B5	0.003
B6	< 0.001
B7	6
B8	234
B9	< 0.001

Same assay, conditions: scale: relative to the substrate with the highest activity

Protein	relative activity (initial increase in OD405)
B1	1
B2	0.0033
B3	0
B4	0.0083
B5	0.0025
B6	0.0004
B7	1
B8	1
B9	0.0001

Target: T9, Suc-AAPR-pNA
Settings: scale: relative to the substrate with the highest activity

Protein	relative activity (initial increase in OD405)
B1	0.0001
B2	0.019
B3	0.0005
B4	0.0069
B5	0.0002
B6	0.172
B7	0.0001
B8	0
B9	1

Target: T10, Suc-AAPM-pNA
Settings: scale: relative to the substrate with the highest activity

Protein	relative activity (initial increase in OD405)
B1	0.0008
B2	0.282
B3	0
B4	0.85
B5	0.861
B6	0.0003
B7	0.0001
B8	0
B9	0
